In patent US20240327502A1 (Merck Sharp & Dohme, published 2024):
Read-outs that look alike come from different tables or passages of the source.

How the values were obtained:
[1] = target: T1, F protein of hMPV B virus (human metapneumovirus subtype B); experiment: cell-based or functional assay
[2] = target: F protein of RSV B/Washington virus (respiratory syncytial virus B, …); experiment: cell-based or functional assay
[3] = target: T2, F protein of hMPV A virus (human metapneumovirus subtype A); experiment: cell-based or functional assay
[4] = target: T3, unprocessed hMPV PreF trimeric antigen (human metapneumovirus strain B2); experiment: ELISA; Ni-NTA plate coated with Expi293 supernatant containing the His-tagged antigen; antibody titrated; OD450
T3 construct: also called unprocessed hMPV WT PreF trimer; hMPV WT trimer

[5] = target: T4, T143K; experiment: as above
T4 construct: also called unprocessed hMPV PreF T143K

[6] = target: T5, N135T G139N Y233N; experiment: as above
T5 construct: also called unprocessed hMPV PreF N135T/G139N/Y233N

[7] = target: T3, unprocessed hMPV PreF trimeric antigen; experiment: as above; remark: listed apart in the source
[8] = target: T4, T143K; experiment: as above; remark: listed apart in the source
[9] = target: T6, D296K; experiment: as above
T6 construct: also called unprocessed hMPV PreF D296K

[10] = target: T5, N135T G139N Y233N; experiment: as above; remark: listed apart in the source
[11] = target: T7, T61A, S175R, A185D; experiment: as above
T7 construct: also called unprocessed hMPV PreF T61A/S175R/A185D

[12] = target: T8, K312Q; experiment: as above
T8 construct: also called unprocessed hMPV PreF K312Q

[13] = target: T9, D414K; experiment: as above
T9 construct: also called unprocessed hMPV PreF D414K

[14] = target: T3, unprocessed hMPV PreF trimeric antigen; experiment: as above; remark: listed apart in the source
[15] = target: T10, F protein of hMPV A MARM virus G264R/Q434H (human metapneumovirus subtype A); experiment: cell-based or functional assay
[16] = target: T2, F protein of hMPV A virus; experiment: cell-based or functional assay; remark: listed apart in the source
[17] = target: T11, F protein of hMPV A MARM virus K138Q (human metapneumovirus subtype A); experiment: cell-based or functional assay
[18] = target: T12, F protein of hMPV A MARM virus V231A/G264R (human metapneumovirus subtype A); experiment: cell-based or functional assay
[19] = target: T10, F protein of hMPV A MARM virus …; experiment: cell-based or functional assay; remark: listed apart in the source
[20] = target: T11, F protein of hMPV A MARM virus K138Q; experiment: cell-based or functional assay; remark: listed apart in the source
[21] = target: T12, F protein of hMPV A MARM virus …; experiment: cell-based or functional assay; remark: listed apart in the source
[22] = target: T1, F protein of hMPV B virus; experiment: cell-based or functional assay; remark: listed apart in the source
[23] = target: T2, F protein of hMPV A virus; experiment: cell-based or functional assay; remark: listed apart in the source

B1: M2B6 (antibody, V domains shown)
VH: QVQLQESGPGLVKPSETLSLTCSVSGASIGGYYWGWIRQPPGKGLEWLGYIYYSGRTVYSPSLRGRLALSLDMSRQQLSLRLRSVAAADTAVYYCASLTITPGWFDSWGPGTLVTVSS
VL: QSVLTQPPSVSGAPGQRVTISCTGSSSNIGAGYDVHWYQQFPGSAPKLLIYGNTKRPSGVPDRFSGSTSGSSASLAITGLQTEDEAEYYCQSYERNLDGALFGGGTKLSVL
PRNT IC50 [1]: 0.0237 µg/mL | PRNT IC50 [2]: 0.0092 µg/mL | PRNT IC50 [3]: 0.044 µg/mL

B2: M3C06 (antibody, V domains shown)
VH: QVQLVQSGAEVKKPGSSVKVSCKAYGGTLSNYAISWVRQAPGQGLHWMGRIIPVMNVANYADNFQGRVTITADKSTSTAYMELSSLRSEDAAIYYCATARGLGSLEGGDAFDVWGQGTMLTVSS
VL: DIVMTQSPDSVAVSLGERATISCKSSLSLLYSSNNKNYLVWYQQKPGQPPKLLFYWASTRESGVPDRFSASGSGTDFTLTISSLQAEDVAVYYCQQYYSTPITFGQGTRLEIR
notes: IgG
PRNT IC50 [1]: 0.0617 µg/mL | PRNT IC50 [3]: > 10 µg/mL | EC50 (read off the curve) [4]: ~0.009 µg/mL | binding result [5]: no binding (tested: about 3000 ng/mL) | binding result [6]: binds

B3: M2A05 (antibody, V domains shown)
VH: QITLKESGPTLVKPTQTLTLTCTVSGFSLSANSVGVAWFRQPPGKAPEWLGVIYWDDDKRFSPSLKTRLSITKDASTSQVVLRLTNVSPLDTATYYCVRKHYDLLQWGQGAPVTVSS
VL: EIVLTQSPGTLSLSPGEGATLSCRASRSVNSDYIAWYQHKPGLAPRLLIYAASTRATDIPDRFRADVSGTDFTLTIDRLEPDDFAVYYCQQYGSAVWTFGQGTRVEVK
notes: IgG
EC50 (read off the curve) [7]: ~0.004 µg/mL | EC50 (read off the curve) [8]: ~0.003 µg/mL | EC50 (read off the curve) [9]: ~0.07 µg/mL | EC50 (read off the curve) [10]: ~0.003 µg/mL | EC50 (read off the curve) [11]: ~0.004 µg/mL | EC50 (read off the curve) [12]: ~0.003 µg/mL | PRNT IC50 [1]: 0.0657 µg/mL | PRNT IC50 [3]: > 10 µg/mL

B4: M1A04 (antibody, V domains shown)
VH: EVQLVESGGGLVRPGGSLRLSCAASGFNVRNYYMSWVRQAPGKGLEWISVIYGGGTTFYAGSVKGRFTISRDDSKSTLFLQMNSLRADDTAVYYCARDPGTVMSTENLQGMDVWGQGTTVTVSS
VL: DIQMTQSPSSLSASVGDRVTITCRASQTIRSYLNWYQQKPGKAPNLLIYAATSLQSGVPSRFSGSGSGTDFTLTISSLQPEDSATYYCQQSFSTLYSFGQGTRLEIK
notes: IgG
PRNT IC50 [1]: 0.128 µg/mL | PRNT IC50 [3]: 0.0872 µg/mL | binding result [13]: binds | EC50 (read off the curve) [14]: ~0.005 µg/mL

B5: M1C7s (antibody, V domains shown)
VH: QVQLVQSGPEVRKPGSSVRVSCKASGGTFTRLTITWVRQAPGQGLEWMGRIIPAVDITNYAPKFQGRVTITADKSTGAVYMDLISLTSDDTAIYFCATVLDWSNALDIWGQGTMVTVSS
VL: DIVMTQTPLSLSVTPGQPASISCKSSESLLNSDGKTYLFWYLQKPGQSPQVLIYDLSSRFSGVPERFSGSGSGTDFTLKISRVEPEDVGIYYCMQGLHLPWTFGRGTRLEIKR
PRNT IC50 [1]: 0.0092 µg/mL | PRNT IC50 [3]: 0.015 µg/mL

B6: M1A08 (antibody, V domains shown)
VH: QVQLVQSGAEVKKPGASVKVSCKASGVTLTDYYFHWIRQAPGQALEWMGRINPARGGTHYAEKFEDRVTMTTDTSTNTVYMDLSSLRSDDTAVYYCARSGSTHNIYSGFYAFDHWGQGTLVTVSS
VL: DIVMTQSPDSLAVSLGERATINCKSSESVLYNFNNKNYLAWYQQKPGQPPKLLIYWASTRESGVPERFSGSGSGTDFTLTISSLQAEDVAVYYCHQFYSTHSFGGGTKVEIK
PRNT IC50 [1]: 0.72 µg/mL | PRNT IC50 [3]: 2.27 µg/mL

B7: M4B06 (antibody, V domains shown)
VH: EVQLLESGGGFVQPGGSLRLSCVVTGFTFSNYAMCWVRQAPGKGPEWVSGIGGSVGTTYYADSVKGRFTISRDNSKNTLYLQMSGLRAEDTARYYCAKVPSFFVFEDGFDMWGQGTVVTVSS
VL: QSVLTQPPSASGNPGQRVTISCYGSGSNIGNNYVHWFRQLPGTAPRLLIYNTDILVPGVPDRFSGSESGTSASLAISGLQSGDEADYFCAAWDDTLNGYVFGPGTTVTVL
IC50, hMPV plaque reduction neutralization [15]: 0.7 µg/mL | IC50, hMPV plaque reduction neutralization [16]: 0.0103 µg/mL | IC50, hMPV plaque reduction neutralization [17]: 0.49 µg/mL | IC50, hMPV plaque reduction neutralization [18]: 0.524 µg/mL | PRNT IC50 [1]: 0.0022 µg/mL | PRNT IC50 [3]: 0.0035 µg/mL | fold reduction of neutralization potency against the MARM virus [19]: 70 fold | fold reduction of neutralization potency against the MARM virus [20]: 49 fold | fold reduction of neutralization potency against the MARM virus [21]: 52 fold

B8: M4B06 Fab (Fab, V domains shown)
VH: EVQLLESGGGFVQPGGSLRLSCVVTGFTFSNYAMCWVRQAPGKGPEWVSGIGGSVGTTYYADSVKGRFTISRDNSKNTLYLQMSGLRAEDTARYYCAKVPSFFVFEDGFDMWGQGTVVTVSS
VL: QSVLTQPPSASGNPGQRVTISCYGSGSNIGNNYVHWFRQLPGTAPRLLIYNTDILVPGVPDRFSGSESGTSASLAISGLQSGDEADYFCAAWDDTLNGYVFGPGTTVTVL
IC50, hMPV plaque reduction neutralization [16]: 0.076 µg/mL

B9: M1C7 (antibody, V domains shown)
VH: QVQLVESGGGLVQPGRSLRLSCAASGFTFSSYAMHWVRQAPGKGLEWVAIITYDGSGKYYADSLEGRITISRDDPKSMLYLHMRSLTAEDTAVYYCVKSGSFSSAFWLEDWGQGTLVTVSS
VL: EIVLTQSPATLSLSPGERATLSCRASQSISNFVAWYQQKPGQAPRLLIYDASNGATGTPARFSGSGSGTDFTLTISSLEPEDFAVYYCQQRSTWTFGQGTKVEIKR
PRNT IC50 [1]: 0.0085 µg/mL | PRNT IC50 [2]: 1.1 µg/mL | PRNT IC50 [3]: 0.0083 µg/mL

B10: M4A10 (antibody, V domains shown)
VH: QVQLVQSGAEVKKPGASVKVSCKASGYTFNGHYLHWVRQAPGQGLEWMGWINPNSGGTDYAQRFQGRVTMTRGTSISTAYMELSRLTSDDTAVYFCARDNFGFWSASSGRHNWLDSWGQGTLVIVSS
VL: NFMLTQPHSVSESPGKTVTISCTRSTGNIASNYVQWYQQRPGSSPTTVIYEDNQRPSAVPDRFSGSIDSSSNSASLTVSGLRTEDEADYYCQSYDSGHHVVFGGGTKLTVL
notes: IgG
PRNT IC50 [1]: 0.0301 µg/mL | PRNT IC50 [3]: > 10 µg/mL | EC50 (read off the curve) [4]: ~0.006 µg/mL | EC50 (read off the curve) [5]: ~0.002 µg/mL | binding result [6]: binds

B11: M3D04 (antibody, V domains shown)
VH: EVQLVESGGDLVEPGGSLRLSCAASGFTFESAWMSWVRQAPGKGLEWVGRIKSKLDHGTTDYAAPVKGRFTLSRDDSKNTLFLQMNNLKTEDTGVYYCATDRSDVRFLEWLGNYQFGMDVWGQGTTVAVSS
VL: EIVLTQSPGTLSLSPGERATLSCRASHSVSSSYLAWYQQKPGQAPRLLIFGASSRATGIPDRFSGSGSGTDFTLTISRLEPEDFAVYYCQQYLTSPPGWTFGQGTKVEIK
PRNT IC50 [1]: 0.327 µg/mL | PRNT IC50 [3]: 0.2 µg/mL

B12: M1D2 (antibody, V domains shown)
VH: QVQLQESGPGLVKPSGTLSLTCTVSGGSVNSDHWWTWVRQSPETGLEWIGELNHIGTFNYNPSFKSRATISIDTSKNQFSLTLTSVAAADTAVYYCARRPPPLPEYFYYYFMDVWGNGTTVTVSS
VL: DIQMTQSPSSLSASVGDRVTITCRTSQSIRGHINWYQQKPGKGPKLLIYGASSLQSGVPSRFSGSGSGTDFTLTISSLQAEDFATYYCQQSYSNPYSFGRGTKLEIKR
PRNT IC50 [1]: 0.0124 µg/mL | PRNT IC50 [3]: 0.0117 µg/mL

B13: M8C10 (antibody, V domains shown)
VH: QVQLVESGGGVVQPGRSLRLSCAASGFTFTTYTMHWVRQAPGKGLEWVALISSDGNNKYYADSVKGRFTISRDNSKNTLYLQMSSLRAEDTAVYYCARGYYSGGDAFDVWGQGTMVTVSS
VL: DIQMTQSPSTLSASVGDRVTITCRASQTITIWLAWYQQKPGKAPKLLIYDAVSLESGVPSRFRGSGSGTDFTLTISSLQPDDFATYYCQQYNNYPYTFGQGTKLEIKR
PRNT IC50 [1]: 0.66 µg/mL | PRNT IC50 [3]: 0.37 µg/mL | virus neutralization IC50, MPV strain B2 [22]: 660 nM | virus neutralization IC50, MPV strain A1 [23]: 371 nM
